Measured values as given in PMC4113144, “IRF-1 regulates alternative mRNA splicing of carcinoembryonic antigen-related cell adhesion molecule 1 (CEACAM1) in breast epithelial cells generating an immunoreceptor tyrosine-based inhibition motif”.

Biological target: T1, IRF-1 (UniProt P10914 1-325)
T1 sequence: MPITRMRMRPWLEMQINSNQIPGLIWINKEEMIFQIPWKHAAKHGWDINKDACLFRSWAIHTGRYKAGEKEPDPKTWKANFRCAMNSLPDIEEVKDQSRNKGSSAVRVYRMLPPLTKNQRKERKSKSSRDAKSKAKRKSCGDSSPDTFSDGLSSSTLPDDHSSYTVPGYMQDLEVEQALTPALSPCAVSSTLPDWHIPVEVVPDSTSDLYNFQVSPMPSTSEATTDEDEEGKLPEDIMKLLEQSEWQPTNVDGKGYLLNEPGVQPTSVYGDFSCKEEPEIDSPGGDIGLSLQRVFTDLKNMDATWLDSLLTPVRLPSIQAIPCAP
Test: EMSA; 17 pmol IRF-1 : 0.3 pmol DNA lowest ratio; mostly C1 plus C2 complexes; LightShift 1X binding buffer, 5% glycerol, 10 mM MgCl2, 200 ng poly(dI-dC), 0.3 pmol labeled DNA in 10 ul, room temperature 30 min; 6% DNA retardation gel; pH and salt not given
Settings: protein: commercial; tags: His; label: IRDye 700

B1: CEACAM1 ISRE WT 60-mer (dsDNA)
DNA 1: TGGGAAACCAAAATGTAGACAGAAAGGAAAGAGAAAGTAAGGACAAAGGTAGGAATGAGA
DNA 2: TCTCATTCCTACCTTTGTCCTTACTTTCTCTTTCCTTTCTGTCTACATTTTGGTTTCCCA
  binding result: binds
